Experimental data from article PMC5391026.
Each block holds one substance with its values, some of them ahead of it.

Experiments:
[1] = target: HvPho1ΔL78 (HvPho1 lacking the L78 insertion) (barley (Hordeum vulgare)); assay: SEC; single recombinant proteins on HiLoad Superdex S-200 26/60, 25 mM HEPES pH 7.5, 50 mM NaCl; apparent molecular weight by column calibration; peak fractions also analysed by DLS at 25°C
[2] = target: branching enzyme IIb (HvBeIIb) of barley endosperm extract (barley (endogenous in Hordeum vulgare 'QUENCH' endosperm)); assay: SEC; total barley endosperm soluble protein on a 26/60 Superdex S-200 column; fractions analysed by immunoblot (anti-HvPho1, anti-HvBeIIb polyclonal antibodies) and native activity gels; extract with or without 1 mM ATP and 2.5 mM protein phosphatase inhibitor cocktail before SEC
[3] = target: recombinant barley plastidic starch phosphorylase (HvPho1) (barley (Hordeum vulgare)); assay: cross-linking; recombinant HvPho1 (1 mg/ml) in 20 mM HEPES pH 7.5 treated with glutaraldehyde (0.15% v/v) for 0.5 to 30 min at 37°C; SDS-PAGE
[4] = target: recombinant barley plastidic starch phosphorylase (HvPho1) (barley (Hordeum vulgare)); assay: SEC; single recombinant proteins on HiLoad Superdex S-200 26/60, 25 mM HEPES pH 7.5, 50 mM NaCl; apparent molecular weight by column calibration; peak fractions also analysed by DLS at 25°C

stoichiometry N [1]: 2
Substance: HvPho1ΔL78 (HvPho1 lacking the L78 insertion) (enzyme)

stoichiometry N [2]: 2
Substance: branching enzyme IIb (HvBeIIb) of barley endosperm extract

stoichiometry N [3]: 2 | stoichiometry N [4]: 2
Substance: recombinant barley plastidic starch phosphorylase (HvPho1) (enzyme)
